This is an account of results in publication PMC10350922, “Allosteric Inhibitors of Macrophage Migration Inhibitory Factor (MIF) Interfere with Apoptosis-Inducing Factor (AIF) Co-Localization to Prevent Parthanatos”.

This series addresses MIF (ZP307-labeled) (human, UniProt P14174 2-115). Description: competition; competes with PA20-Q1, dose-dependent; 5 mM Mg2+; 100 mM Tris, 5 mM MgCl2, 5 mM KCl, pH 8.2; 1 uM labeled MIF, 1 uM PA20-Q1; inhibitor preincubation at rt. The note with it: protein: recombinant; tags: C-terminal His-tagged and untagged both made; chain copies: 3; single strand.

On to AAAAAAAAAAAAAAAAAAAA (ssDNA) [PA20], for which the binding result is recorded as “binds”.
